T1: MALT1 (wild type, Flag- and Avi-tagged bio-construct) (human, UniProt Q9UDY8 1-824, Avi-tag biotinylated in vivo by co-expressed BirA)
T1 construct: also called paracaspase; bio-IP purified MALT1
T1 sequence (looked up): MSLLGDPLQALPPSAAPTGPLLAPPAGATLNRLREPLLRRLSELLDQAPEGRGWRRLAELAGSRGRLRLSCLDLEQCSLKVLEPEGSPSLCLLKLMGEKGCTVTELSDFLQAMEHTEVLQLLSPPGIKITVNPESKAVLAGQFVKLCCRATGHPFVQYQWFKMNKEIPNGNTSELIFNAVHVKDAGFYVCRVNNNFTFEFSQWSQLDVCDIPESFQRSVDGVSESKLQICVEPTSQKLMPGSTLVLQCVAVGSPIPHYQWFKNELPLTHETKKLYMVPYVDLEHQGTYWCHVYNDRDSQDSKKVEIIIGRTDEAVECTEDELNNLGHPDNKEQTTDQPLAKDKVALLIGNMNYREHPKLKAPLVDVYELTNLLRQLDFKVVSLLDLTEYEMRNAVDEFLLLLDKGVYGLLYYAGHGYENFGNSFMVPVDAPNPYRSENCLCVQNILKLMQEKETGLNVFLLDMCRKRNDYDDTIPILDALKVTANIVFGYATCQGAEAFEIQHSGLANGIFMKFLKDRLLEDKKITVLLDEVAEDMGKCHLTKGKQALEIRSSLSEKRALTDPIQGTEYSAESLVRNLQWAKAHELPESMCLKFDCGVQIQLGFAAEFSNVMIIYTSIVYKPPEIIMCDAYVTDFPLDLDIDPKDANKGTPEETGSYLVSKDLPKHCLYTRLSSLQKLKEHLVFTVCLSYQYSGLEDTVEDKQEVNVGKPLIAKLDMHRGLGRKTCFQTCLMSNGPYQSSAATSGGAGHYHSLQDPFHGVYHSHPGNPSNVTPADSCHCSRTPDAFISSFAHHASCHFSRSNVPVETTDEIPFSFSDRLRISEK

T2: MALT1-C464A (bio-tagged) (human, UniProt Q9UDY8 1-824)
T2 construct: also called C464A mutant; C464 mutant
T2 sequence (looked up): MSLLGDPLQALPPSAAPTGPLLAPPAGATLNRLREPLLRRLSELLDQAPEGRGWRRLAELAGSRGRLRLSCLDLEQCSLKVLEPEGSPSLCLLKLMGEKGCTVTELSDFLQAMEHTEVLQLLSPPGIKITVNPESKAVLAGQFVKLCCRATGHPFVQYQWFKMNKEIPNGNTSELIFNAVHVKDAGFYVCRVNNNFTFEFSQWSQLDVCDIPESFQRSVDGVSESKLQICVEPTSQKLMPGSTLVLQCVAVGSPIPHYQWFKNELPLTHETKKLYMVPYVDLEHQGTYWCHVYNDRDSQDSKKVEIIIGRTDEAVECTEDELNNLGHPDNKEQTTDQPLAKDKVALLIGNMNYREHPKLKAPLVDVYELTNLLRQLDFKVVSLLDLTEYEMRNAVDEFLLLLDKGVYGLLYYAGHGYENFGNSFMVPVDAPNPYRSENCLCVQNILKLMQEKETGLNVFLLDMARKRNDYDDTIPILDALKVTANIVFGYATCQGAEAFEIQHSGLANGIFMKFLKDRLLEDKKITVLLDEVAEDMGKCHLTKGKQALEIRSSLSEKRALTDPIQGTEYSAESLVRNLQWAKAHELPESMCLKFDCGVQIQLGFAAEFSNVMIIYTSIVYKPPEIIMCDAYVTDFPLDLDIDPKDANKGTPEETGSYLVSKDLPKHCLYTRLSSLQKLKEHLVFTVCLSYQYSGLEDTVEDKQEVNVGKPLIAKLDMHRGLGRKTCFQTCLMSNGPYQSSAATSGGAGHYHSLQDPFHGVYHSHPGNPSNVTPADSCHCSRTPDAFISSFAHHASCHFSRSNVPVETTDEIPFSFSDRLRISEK

T3: MALT1-R149A (bio-tagged) (human, UniProt Q9UDY8 1-824, Avi-tag biotinylated in vivo by co-expressed BirA)
T3 construct: also called R149A mutant
T3 sequence (looked up): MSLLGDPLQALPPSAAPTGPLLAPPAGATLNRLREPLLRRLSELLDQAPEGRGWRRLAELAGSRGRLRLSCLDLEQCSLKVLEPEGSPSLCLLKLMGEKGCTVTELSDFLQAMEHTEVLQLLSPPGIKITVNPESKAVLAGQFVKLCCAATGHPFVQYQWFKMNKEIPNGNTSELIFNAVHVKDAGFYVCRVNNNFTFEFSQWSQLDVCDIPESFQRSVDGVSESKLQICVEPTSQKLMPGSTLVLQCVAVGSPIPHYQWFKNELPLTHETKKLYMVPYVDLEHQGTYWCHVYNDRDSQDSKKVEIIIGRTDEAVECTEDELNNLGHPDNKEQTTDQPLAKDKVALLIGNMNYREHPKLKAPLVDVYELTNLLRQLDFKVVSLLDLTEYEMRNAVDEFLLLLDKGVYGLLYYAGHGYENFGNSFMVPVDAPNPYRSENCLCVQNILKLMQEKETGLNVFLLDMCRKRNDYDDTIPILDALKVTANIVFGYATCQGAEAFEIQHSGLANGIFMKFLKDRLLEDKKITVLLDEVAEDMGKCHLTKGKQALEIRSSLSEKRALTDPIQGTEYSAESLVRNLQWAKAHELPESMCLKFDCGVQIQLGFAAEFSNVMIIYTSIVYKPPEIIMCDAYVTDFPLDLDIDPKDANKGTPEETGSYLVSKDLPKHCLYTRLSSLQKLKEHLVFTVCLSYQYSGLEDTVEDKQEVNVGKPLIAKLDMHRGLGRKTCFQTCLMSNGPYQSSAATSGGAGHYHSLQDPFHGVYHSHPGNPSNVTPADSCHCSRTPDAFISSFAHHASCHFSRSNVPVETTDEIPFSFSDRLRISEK


What was measured:
[1] = biological target: T1, MALT1 (wild type, Flag- and Avi-tagged …); assay: immunoblots of bio-IPs from Jurkat cells with stable expression
MALT1-C464A (bio-tagged) [2] = biological target: T2, MALT1-C464A (bio-tagged); assay: co-IP (bio-IP, immunoblot)
MALT1-R149A (bio-tagged) [3] = biological target: T3, MALT1-R149A (bio-tagged); assay: co-IP (bio-IP, immunoblot)
MALT1-C464A (bio-tagged) [4] = biological target: T2, MALT1-C464A (bio-tagged); assay: immunoblots of bio-IPs from Jurkat cells with stable expression
MALT1-R149A (bio-tagged) [5] = biological target: T3, MALT1-R149A (bio-tagged); assay: as above

| binding result [1] | binding result (MALT1-C464A (bio-tagged) [2]) | binding result (MALT1-R149A (bio-tagged) [3]) | binding result (MALT1-C464A (bio-tagged) [4]) | binding result (MALT1-R149A (bio-tagged) [5]) | Binder |
| --- | --- | --- | --- | --- | --- |
| binds | binds | binds | – | – | BCL10 (other, UniProt O95999 1-233, looked up, Co-precipitated from lysates of human cell lines) MEPTAPSLTEEDLTEVKKDALENLRVYLCEKIIAERHFDHLRAKKILSREDTEEISCRTSSRKRAGKLLDYLQENPKGLDTLVESIRREKTQNFLIQKITDEVLKLRNIKLEHLKGLKCSSCEPFPDGATNNLSRSNSDESNFSEKLRASTVMYHPEGESSTTPFFSTNSSLNLPVLEVGRTENTIFSSTTLPRPGDPGAPPLPPDLQLEEEGTCANSSEMFLPLRSRTVSRQ |
| – | – | – | binds | binds | TRAF6 (other, UniProt Q9Y4K3 1-522, looked up, Co-precipitated from lysates of human cell lines) MSLLNCENSCGSSQSESDCCVAMASSCSAVTKDDSVGGTASTGNLSSSFMEEIQGYDVEFDPPLESKYECPICLMALREAVQTPCGHRFCKACIIKSIRDAGHKCPVDNEILLENQLFPDNFAKREILSLMVKCPNEGCLHKMELRHLEDHQAHCEFALMDCPQCQRPFQKFHINIHILKDCPRRQVSCDNCAASMAFEDKEIHDQNCPLANVICEYCNTILIREQMPNHYDLDCPTAPIPCTFSTFGCHEKMQRNHLARHLQENTQSHMRMLAQAVHSLSVIPDSGYISEVRNFQETIHQLEGRLVRQDHQIRELTAKMETQSMYVSELKRTIRTLEDKVAEIEAQQCNGIYIWKIGNFGMHLKCQEEEKPVVIHSPGFYTGKPGYKLCMRLHLQLPTAQRCANYISLFVHTMQGEYDSHLPWPFQGTIRLTILDQSEAPVRQNHEEIMDAKPELLAFQRPTIPRNPKGFGYVTFMHLEALRQRTFIKDDTLLVRCEVSTRFDMGSLRREGFQPRSTDAGV |

Reference: patent publication US8309523 (VIB VZW, dated 2012)
